Experimental data as given in article PMC8063757, “The DNA-binding protein HU is a molecular glue that attaches bacteria to extracellular DNA in biofilms” (The Journal of Biological Chemistry, 2020).
Positions count from the first letter of the chain named. Numbers in names are those of the source. Where “and” joins values, the source holds several entries; their conditions need not be identical. Equal values may be shown once.

Legend:
[1] = biological target: the molecule itself; assay: cross-linking; glutaraldehyde added to HU-B or its variant alone (no f-LPS); 15% SDS-PAGE, Coomassie Blue G-250 staining
[2] = biological target: the molecule itself; assay: SEC; Superdex-75 10/300GL on an AKTA Purifier-10; elution at ~12 ml, corresponding to ~25 kDa
[3] = biological target: LysrHU-A (Escherichia coli K-12, UniProt P0ACF0 1-90, K83A;K86A); assay: EMSA; EMSA on 0.7% or 1% agarose gels, EtBr stain; binding buffer, salt, pH and temperature not stated; conditions: protein: recombinant; chain copies: 2; label: none (EtBr stain); four-way junction of 4 strands, equimolar, one copy each; strands as printed are not perfectly complementary
[4] = biological target: LoodLysrHU-A (Escherichia coli K-12, UniProt P0ACF0 1-51+=SGGGGSGGGGS+75-90, K83A;K86A;internal_change); assay: as above; conditions: protein: recombinant; chain copies: 2; label: none (EtBr stain); four-way junction of 4 strands, equimolar, one copy each; strands as printed are not perfectly complementary
[5] = biological target: T1, HU-B K83A (Escherichia coli K-12, UniProt P0ACF4 1-90, K83A); assay: as above; conditions: protein: recombinant; chain copies: 2; label: none (EtBr stain); four-way junction of 4 strands, equimolar, one copy each; strands as printed are not perfectly complementary
T1 sequence: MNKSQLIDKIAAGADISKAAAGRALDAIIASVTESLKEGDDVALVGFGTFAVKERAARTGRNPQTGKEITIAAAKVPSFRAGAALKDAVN

[6] = biological target: LoodHU-A K83A (Escherichia coli K-12, UniProt P0ACF0 1-51+=SGGGGSGGGGS+75-90, K83A;internal_change); assay: as above; conditions: protein: recombinant; chain copies: 2; label: none (EtBr stain); four-way junction of 4 strands, equimolar, one copy each; strands as printed are not perfectly complementary
[7] = biological target: T2, F47W HU-B (Escherichia coli K-12, UniProt P0ACF4 1-90, F47W); assay: as above; conditions: protein: recombinant; chain copies: 2; label: none (EtBr stain); four-way junction of 4 strands, equimolar, one copy each; strands as printed are not perfectly complementary
T2 sequence: T1 sequence with F47W, A83K

[8] = biological target: T3, HU-B (Escherichia coli K-12, UniProt P0ACF4 1-90); assay: as above; conditions: protein: recombinant; chain copies: 2; label: none (EtBr stain); four-way junction of 4 strands, equimolar, one copy each; strands as printed are not perfectly complementary
T3 sequence: T1 sequence with A83K

[9] = biological target: T4, HU-B K86A (Escherichia coli K-12, UniProt P0ACF4 1-90, K86A); assay: as above; conditions: protein: recombinant; chain copies: 2; label: none (EtBr stain); four-way junction of 4 strands, equimolar, one copy each; strands as printed are not perfectly complementary
T4 sequence: T1 sequence with A83K, K86A

[10] = biological target: T5, F79W HU-B (Escherichia coli K-12, UniProt P0ACF4 1-90, F79W); assay: as above; conditions: protein: recombinant; chain copies: 2; label: none (EtBr stain); four-way junction of 4 strands, equimolar, one copy each; strands as printed are not perfectly complementary
T5 sequence: T1 sequence with F79W, A83K

[11] = biological target: T6, LoodHU-B (Escherichia coli K-12, UniProt P0ACF4 1-51+=SGGGGSGGGGS+75-90, internal_change); assay: as above; conditions: protein: recombinant; chain copies: 2; label: none (EtBr stain); four-way junction of 4 strands, equimolar, one copy each; strands as printed are not perfectly complementary
T6 sequence: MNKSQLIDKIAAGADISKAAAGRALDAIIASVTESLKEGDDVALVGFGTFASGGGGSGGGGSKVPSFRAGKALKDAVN

[12] = biological target: LoodHU-A K86A (Escherichia coli K-12, UniProt P0ACF0 1-51+=SGGGGSGGGGS+75-90, K86A;internal_change); assay: as above; conditions: protein: recombinant; chain copies: 2; label: none (EtBr stain); four-way junction of 4 strands, equimolar, one copy each; strands as printed are not perfectly complementary
[13] = biological target: HU-A K83A (Escherichia coli K-12, UniProt P0ACF0 1-90, K83A); assay: as above; conditions: protein: recombinant; chain copies: 2; label: none (EtBr stain); four-way junction of 4 strands, equimolar, one copy each; strands as printed are not perfectly complementary
[14] = biological target: T7, LysrHU-B (Escherichia coli K-12, UniProt P0ACF4 1-90, K83A;K86A); assay: as above; conditions: protein: recombinant; chain copies: 2; label: none (EtBr stain); four-way junction of 4 strands, equimolar, one copy each; strands as printed are not perfectly complementary
T7 sequence: T1 sequence with K86A

[15] = biological target: T8, LoodLysrHU-B (Escherichia coli K-12, UniProt P0ACF4 1-51+=SGGGGSGGGGS+75-90, K83A;K86A;internal_change); assay: as above; conditions: protein: recombinant; chain copies: 2; label: none (EtBr stain); four-way junction of 4 strands, equimolar, one copy each; strands as printed are not perfectly complementary
T8 sequence: T6 sequence with K71A, K74A

[16] = biological target: T9, LoodHU-B K83A (Escherichia coli K-12, UniProt P0ACF4 1-51+=SGGGGSGGGGS+75-90, K83A;internal_change); assay: as above; conditions: protein: recombinant; chain copies: 2; label: none (EtBr stain); four-way junction of 4 strands, equimolar, one copy each; strands as printed are not perfectly complementary
T9 sequence: T6 sequence with K71A

[17] = biological target: HU-A K86A (Escherichia coli K-12, UniProt P0ACF0 1-90, K86A); assay: as above; conditions: protein: recombinant; chain copies: 2; label: none (EtBr stain); four-way junction of 4 strands, equimolar, one copy each; strands as printed are not perfectly complementary
[18] = biological target: T10, LoodHU-B K86A (Escherichia coli K-12, UniProt P0ACF4 1-51+=SGGGGSGGGGS+75-90, K86A;internal_change); assay: as above; conditions: protein: recombinant; chain copies: 2; label: none (EtBr stain); four-way junction of 4 strands, equimolar, one copy each; strands as printed are not perfectly complementary
T10 sequence: T6 sequence with K74A

B1: HU-B WT (6xHis-tagged) (natural protein, E. coli K-12)
chain: T1 sequence with A83K
notes: HU-B, isoform of the nucleoid-associated histone-like protein HU of E. coli; gene PCR-amplified from E. coli K-12 genomic DNA; ~90 amino acids, ~9.2-kDa polypeptide; Cloned between BamHI and HindIII of pQE-30; also called WT HU; source: E. coli XL-1 Blue (pQE-30), purified (Ni-NTA, 2 M NaCl wash)
For B1, the “stoichiometry N” value [1] was 2 and 4 and 3 and 6.

B2: LoodLysrHU-B (loop-deleted and lysine-replaced HU-B) (natural protein, E. coli K-12)
chain: T6 sequence with K71A, K74A
notes: HU-B of E. coli K-12, the stretch before the deleted loop (residues 52 to 74 deleted); 11-residue glycine/serine-rich linker that replaces residues 52 to 74; HU-B of E. coli K-12, the stretch after the deleted loop, with K83A and K86A (numbers count on unchanged HU-B); Combines the LoodHU-B and LysrHU-B changes; source: E. coli XL-1 Blue (pQE-30), purified (Ni-NTA, 2 M NaCl wash)
With B2 the “stoichiometry N” value [2] was 2 and the “stoichiometry N” value [1] was 4.

B3: LoodHU-B (loop-deleted HU-B) (natural protein, E. coli K-12)
chain: T6 sequence
notes: HU-B of E. coli K-12, the stretch before the deleted loop (residues 52 to 74 deleted); 11-residue glycine/serine-rich linker that replaces residues 52 to 74; HU-B of E. coli K-12, the stretch after the deleted loop (residues 52 to 74 deleted); The results call the loop 22 residues long, but residues 52 to 74 are 23 residues; source: E. coli XL-1 Blue (pQE-30), purified (Ni-NTA, 2 M NaCl wash)
For B3, the “stoichiometry N” value [2] was 2 and the “stoichiometry N” value [1] was 4.

B4: LysrHU-B (lysine-replaced HU-B, K83A and K86A) (natural protein, E. coli K-12)
chain: T1 sequence with K86A
notes: source: E. coli XL-1 Blue (pQE-30), purified (Ni-NTA, 2 M NaCl wash)
For B4, the “stoichiometry N” value [2] was 2 and the “stoichiometry N” value [1] was 4.

B5: 4WJ DNA (structured_DNA)
DNA 1: CCCTATAACCCCTGCATTGAATTCCTGTCTGATAA
DNA 2: GTAGTCGTGATAGGTGCAGGGGTTATAGGG
DNA 3: AACAGTAGCTCTTAATTCGAGCTCGCGCCCTATCACGACTA
DNA 4: TTTATCAGACTGGAATTCAAGCGCGAGCTCGAATAAGAGCTACTGT
B5: binds [3]; no binding [4]; binds [5]. B5: no binding [6]; binds [7]; binds [8]. B5: binds [9]; binds [10]; binds [11]. B5: no binding [12]; binds [13]; binds [14]. B5: no binding [15]; no binding [16]; binds [17]. B5: no binding [18].
